We go through 2 molecules from article doi:10.1101/2020.08.24.265033, “Dipeptidyl peptidase 9 triggers BRCA2 degradation by the N-degron pathway to promote DNA-damage repair” (bioRxiv, 2020).

In this test the target is T1, Human recombinant DPP9 (dipeptidyl peptidase 9), His-tagged (human, UniProt Q86TI2 1-863).
T1 construct: Dipeptidyl peptidase 9, human, recombinant; Held on a Ni chip by its His tag in SPR; used in solution in the pull-down; also called purified DPP9; His-tagged DPP9; source: Sf9 cells, purified essentially as described in Pilla et al. 2012
T1 sequence (Q86TI2 whole entry): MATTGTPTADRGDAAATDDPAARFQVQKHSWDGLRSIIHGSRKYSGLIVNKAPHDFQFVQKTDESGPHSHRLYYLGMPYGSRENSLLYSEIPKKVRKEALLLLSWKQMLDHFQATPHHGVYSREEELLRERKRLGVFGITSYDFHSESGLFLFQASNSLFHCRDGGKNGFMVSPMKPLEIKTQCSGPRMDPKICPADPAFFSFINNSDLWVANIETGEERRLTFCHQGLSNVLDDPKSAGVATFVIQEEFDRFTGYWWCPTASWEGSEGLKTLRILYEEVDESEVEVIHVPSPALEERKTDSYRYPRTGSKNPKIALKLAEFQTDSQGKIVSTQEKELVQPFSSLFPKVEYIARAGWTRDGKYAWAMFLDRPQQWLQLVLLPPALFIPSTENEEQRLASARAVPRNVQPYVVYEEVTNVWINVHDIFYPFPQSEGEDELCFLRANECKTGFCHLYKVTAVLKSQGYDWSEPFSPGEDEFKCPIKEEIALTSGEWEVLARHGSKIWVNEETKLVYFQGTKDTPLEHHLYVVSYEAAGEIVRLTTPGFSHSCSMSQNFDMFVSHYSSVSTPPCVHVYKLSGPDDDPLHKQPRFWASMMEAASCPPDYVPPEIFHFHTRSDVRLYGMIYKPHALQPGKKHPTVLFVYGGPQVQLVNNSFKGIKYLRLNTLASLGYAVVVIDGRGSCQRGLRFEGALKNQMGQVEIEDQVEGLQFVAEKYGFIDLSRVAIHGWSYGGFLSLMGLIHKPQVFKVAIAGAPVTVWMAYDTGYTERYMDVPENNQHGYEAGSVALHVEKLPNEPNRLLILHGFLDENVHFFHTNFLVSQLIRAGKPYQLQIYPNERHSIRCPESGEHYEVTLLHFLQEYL
The test is described as follows: SPR; His-tagged DPP9 immobilised on a Ni-loaded NiHC1000m chip; serial dilution of BRCA2 peptides injected; 20 mM HEPES pH 7.4, 150 mM NaCl, 50 µM EDTA, 0.005 % TWEEN-20; 20°C; equilibrium binding analysis. The settings on record: both partners purified. On the technique in general: SPR reads the build-up and loss of mass on a sensor chip optically.

B1: BRCA2_(3-40) synthetic peptide (truncated, lacking Met1-Pro2) (peptide, UniProt P51587 3-40, looked up)
peptide: IGSKERPTFFEIFKTRCNKADLGPISLNWFEELSSEAP
notes: BRCA2, human, residues 3-40; also called truncated BRCA2_(3-40) peptide; source: synthetic peptide
On to B1, for which the Kd (in general, the concentration at which binding is half-saturated) was found to be 75.3 ± 4.8 µM.

B2: BRCA2_(1-40) synthetic peptide (first forty amino acids of BRCA2) (peptide, UniProt P51587 1-40, looked up)
peptide: MPIGSKERPTFFEIFKTRCNKADLGPISLNWFEELSSEAP
notes: BRCA2, human, residues 1-40; also called BRCA2_(1-40) N-terminal peptide; BRAC2_(1-40) peptide; source: synthetic peptide
Turning to B2, the Kd was determined as 16.8 ± 0.7 µM.
